Source: patent US20230266303A1, “SYSTEM” (GTINVENT LIMITED, priority 2020, published 2023)
“Also recorded” adds a separate entry of the source.

How the values were obtained:
Type in all cases: biochemical
dGAE [1] = molecular target: T1, dGAE (Homo sapiens, UniProt P10636); assay: Tau aggregation inhibition assay in vitro, TEM
T1 construct: dGAE, corresponding to amino acid residues 297-391 using numbering from 2N4R tau; made in house
Description: (§1) dGAE protein was diluted into 10 mM phosphate buffer, pH 7.4 (PB) with monoclonal antibody s1 D12 at a ratio of 4:1 protein:Ab (100 μM dGAE+25 μM s1D12 and 10 μM dGAE+2.5 μM s1D12) or 1:1 (25 μM dGAE+25 μM s1D12).
(§2) As a positive control, dGAE was prepared at a final concentration of 10, 25 or 100 μM in 10 mM PB. Negative controls consisted of dGAE with a non-tau IgG antibody at a ratio of 4:1 (10 μM dGAE+2.5 μM anti-ovalbumin), or antibody alone (25 or 2.5 μM s1D12 and 2.5 μM anti-ovalbumin). Samples were agitated at 700 rpm at 37° C. for 3 days.
Transmission electron microscopy (TEM), circular dichroism (CD) and Thioflavin S (ThS) assays were performed as detailed in Al-Hilaly et. al. (2018) J. Mol. Biol. 430, 4119-4131. Briefly, TEM grids were prepared by adding 4 μL of sample to a carbon-coated grid followed by a wash with milli-Q filtered water then staining twice with 2% uranyl acetate. Grids were air dried and then imaged using a JEOL electron microscope operating at 80 kV.

dGAE [2] = molecular target: T1, dGAE; assay: Tau aggregation inhibition assay in vitro, circular dichroism; conditions: 100 μM dGAE + 25 μM s1D12 (4:1)
Description: as §1, §2
(§3) For CD, 60 μL sample was placed in a 0.1 mm quartz cuvette and placed into a JASCO spectropolarimeter. 100 μL ThS in 20 mM MOPS buffer was added to 50 μL of each sample to a final concentration of 20 μM, mixed well, incubated at room temperature for 10 minutes then fluorescence intensity measured in a Cary Eclipse spectrophotometer using an excitation wavelength of 440 nm. Baseline readings from 10 mM PB were subtracted from CD and ThS measurements.

dGAE [3] = molecular target: T1, dGAE; assay: Tau aggregation inhibition assay in vitro, Thioflavin S fluorescence; conditions: 25 μM (1:1) and 100 μM (4:1) dGAE with s1D12
Description: as §1, §2, §3

T1 sequence (P10636 614-708): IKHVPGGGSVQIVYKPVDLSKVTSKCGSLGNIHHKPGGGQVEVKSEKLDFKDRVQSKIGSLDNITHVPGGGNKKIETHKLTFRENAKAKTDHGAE

B1: s1D12: monoclonal antibody binding tau epitope within residues 337 to 349 or 341 to 353 of SEQ ID NO: 1 (antibody)
heavy: QVQLQESGPSLVKPSQTLSLTCTVSGFSLNNNAVGWVRQAPGKVPESLVGCSSDGTCYYNSALKSRLDITRDTSKNQISLSLSSVTTDDAAVYYCTRGHYSIYGYDYLGTIDYWGPGLLVTVSSAKTTAPSVYPLAPVCGDTTGSSVTLGCLVKGYFPEPVTLTWNSGSLSSGVHTFPAVLQSDLYTLSSSVTVTSSTWPSQSITCNVAHPASSTKVDKKIEPRGPTIKPCPPCKCPAPNLLGGPSVFIFPPKIKDVLMISLSPIVTCVVVDVSEDDPDVQISWFVNNVEVHTAQTQTHREDYNSTLRVVSALPIQHQDWMSGKEFKCKVNNKDLPAPIERTISKPKGSVRAPQVYVLPPPEEEMTKKQVTLTCMVTDFMPEDIYVEWTNNGKTELNYKNTEPVLDSDGSYFMYSKLRVEKKNWVERNSYSCSVVHEGLHNHHTTKSFSRTPGK
light: QAVLTQPSSVSGSLGQRVSITCSGSSSNVGGGNSVGWYQHLPGSGLKTIIYDTNSRPSGVPDRFSGSRSGNTATLTINSLQAEDEGDYYCVTGDSTTHDDLVGSGTRLTVLGGQPKSSPSVTLFPPSSEELETNKATLVCTITDFYPGVVTVDWKVDGTPVTQGMETTQPSKQSNNKYMASSYLTLTARAWERHSSYSCQVTHEGHTVEKSLSRADCS
With B1 the “overall effect on assembly of dGAE into fibrils” value (dGAE [1]; collective finding of TEM, CD and ThS experiments) was “inhibits the assembly of dGAE into fibrils in vitro; also recorded: specifically inhibits the assembly of dGAE into fibrils”, the “fibril formation of dGAE in presence of antibody (TEM)” value (dGAE [1]; dGAE:antibody 4:1 or 1:1 (anti-ovalbumin 4:1, 10 μM dGAE), 700 rpm, 37° C., 3 days) was “no fibril formation is observed; also recorded: no fibrils were present” and the “dGAE secondary structure in presence of antibody (CD, antibody spectrum subtracted)” value (dGAE [2]) was “dGAE cannot assemble into 3-sheet rich fibrils”. For the same molecule, the “dGAE secondary structure in presence of antibody (CD, antibody spectrum subtracted)” value (dGAE [2]; listed as s1 D12) was “dGAE has not assembled into fibrils”, the “ThS emission peak at 483 nm of dGAE in presence of antibody” value (dGAE [3]) was “this signal was abolished” and the “ThS emission peak at 483 nm of dGAE in presence of antibody” value (dGAE [3]; listed as s1 D12) was “abolished”.
